Test results taken from publication PMC4118853, “Phage Orf Family Recombinases: Conservation of Activities and Involvement of the Central Channel in DNA Binding” (PLoS ONE, 2014).
Several values for one entry are separate records, joined by “and”; a condition that tells them apart may be missing. Equal values may be shown once.

Assays:
[1] = target: the molecule itself; test: SEC; 1 mg/ml protein on a 24 ml Superose 6HR 10/30 column in 20 mM Tris-HCl pH8, 1 mM EDTA, 0.5 mM DTT, 250 mM KCl
[2] = target: T1, E. coli SSB (single-stranded DNA binding protein), wild type (E. coli, UniProt P0AGE0 1-178); test: far-Western; purified SSB wt or mutant (0.5-5 µg) separated on 15% SDS-PAGE, blotted to PVDF, probed with 20-30 µg YbcN or Orf fused to MBP or GST; detected with anti-MBP or anti-GST antibodies; conditions: both partners purified
T1 construct: also called wt SSB; source: purified as described [13]
T1 sequence (P0AGE0 whole entry, the tested form may be a part): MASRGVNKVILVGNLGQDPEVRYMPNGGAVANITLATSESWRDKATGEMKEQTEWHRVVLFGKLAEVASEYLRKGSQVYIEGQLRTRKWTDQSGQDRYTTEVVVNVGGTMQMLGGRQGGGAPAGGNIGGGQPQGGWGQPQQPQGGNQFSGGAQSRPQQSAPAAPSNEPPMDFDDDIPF

[3] = target: the molecule itself; test: SEC; 1 mg/ml protein on a 24 ml Superose 12 HR 10/30 column in 20 mM Tris-HCl pH 8.0, 1 mM EDTA, 0.5 mM DTT, 150 mM KCl
[4] = target: T2, MBP-YbcN (Escherichia coli cryptic prophage DLP12 …, UniProt Q47269 1-151); test: fluorescence anisotropy; apparent, per dimer; EMSA: 50 mM Tris-HCl pH 8.0, 5 mM EDTA (or 1 mM MgCl2), 1 mM DTT, 5% glycerol, 100 ug/ml BSA, on ice 15 min, 4% PAGE; anisotropy: 100 mM Tris-HCl pH 7.0, 10 nM; conditions: protein: recombinant, tags: N-terminal MBP, chain copies: 2
T2 sequence: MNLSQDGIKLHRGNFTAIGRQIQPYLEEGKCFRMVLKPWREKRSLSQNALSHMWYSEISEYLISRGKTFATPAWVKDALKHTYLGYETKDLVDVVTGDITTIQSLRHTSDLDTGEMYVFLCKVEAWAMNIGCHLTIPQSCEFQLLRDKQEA

[5] = target: T3, MBP-Orf Q45A (Bacteriophage lambda, UniProt P03765 1-146, Q45A); test: as above; conditions: protein: recombinant, tags: N-terminal MBP, chain copies: 2
T3 sequence: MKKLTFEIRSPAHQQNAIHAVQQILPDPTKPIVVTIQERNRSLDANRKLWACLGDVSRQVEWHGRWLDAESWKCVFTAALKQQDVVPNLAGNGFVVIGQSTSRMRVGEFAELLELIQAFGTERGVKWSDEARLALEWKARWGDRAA

[6] = target: T4, MBP-Orf V106E (Bacteriophage lambda, UniProt P03765 1-146, V106E); test: as above; conditions: protein: recombinant, tags: N-terminal MBP, chain copies: 2
T4 sequence: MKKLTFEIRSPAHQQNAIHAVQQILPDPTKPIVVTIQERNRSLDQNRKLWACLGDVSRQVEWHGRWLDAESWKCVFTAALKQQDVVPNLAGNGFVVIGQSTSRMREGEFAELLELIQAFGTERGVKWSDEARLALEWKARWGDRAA

[7] = target: T5, MBP-Orf K48A (Bacteriophage lambda, UniProt P03765 1-146, K48A); test: as above; conditions: protein: recombinant, tags: N-terminal MBP, chain copies: 2
T5 sequence: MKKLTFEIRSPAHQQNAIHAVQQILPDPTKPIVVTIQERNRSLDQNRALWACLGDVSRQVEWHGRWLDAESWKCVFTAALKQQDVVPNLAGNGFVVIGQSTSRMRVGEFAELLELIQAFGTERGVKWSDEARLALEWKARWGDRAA

[8] = target: T6, MBP-Orf W137A (Bacteriophage lambda, UniProt P03765 1-146, W137A); test: as above; conditions: protein: recombinant, tags: N-terminal MBP, chain copies: 2
T6 sequence: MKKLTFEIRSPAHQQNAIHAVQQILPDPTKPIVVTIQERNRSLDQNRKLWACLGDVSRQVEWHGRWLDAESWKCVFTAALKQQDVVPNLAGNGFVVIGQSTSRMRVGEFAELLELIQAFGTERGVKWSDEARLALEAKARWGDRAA

[9] = target: T7, MBP-Orf W50A (Bacteriophage lambda, UniProt P03765 1-146, W50A); test: as above; conditions: protein: recombinant, tags: N-terminal MBP, chain copies: 2
T7 sequence: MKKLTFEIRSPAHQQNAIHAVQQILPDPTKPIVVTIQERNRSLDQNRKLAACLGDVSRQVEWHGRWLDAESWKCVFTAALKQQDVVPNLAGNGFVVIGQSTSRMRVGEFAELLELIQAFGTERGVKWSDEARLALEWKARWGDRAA

[10] = target: T8, MBP-Orf (Bacteriophage lambda, UniProt P03765 1-146); test: as above; conditions: protein: recombinant, tags: N-terminal MBP, chain copies: 2
T8 sequence: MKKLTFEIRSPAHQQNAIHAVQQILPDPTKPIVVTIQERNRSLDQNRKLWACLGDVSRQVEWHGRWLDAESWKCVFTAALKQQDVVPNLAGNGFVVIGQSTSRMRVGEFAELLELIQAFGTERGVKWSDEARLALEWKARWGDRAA

[11] = target: T9, MBP-Orf R103E (Bacteriophage lambda, UniProt P03765 1-146, R103E); test: fluorescence anisotropy; dash in table; most severely deficient; EMSA: 50 mM Tris-HCl pH 8.0, 5 mM EDTA (or 1 mM MgCl2), 1 mM DTT, 5% glycerol, 100 ug/ml BSA, on ice 15 min, 4% PAGE; anisotropy: 100 mM Tris-HCl pH 7.0, 10 nM; conditions: protein: recombinant, tags: N-terminal MBP, chain copies: 2
T9 sequence: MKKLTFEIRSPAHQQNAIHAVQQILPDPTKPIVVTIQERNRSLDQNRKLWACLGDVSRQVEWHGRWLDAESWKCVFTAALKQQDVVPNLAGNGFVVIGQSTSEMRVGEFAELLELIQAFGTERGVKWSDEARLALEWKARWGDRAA

[12] = target: T8, MBP-Orf; test: EMSA; 5 mM EDTA; better than DS60; EMSA: 50 mM Tris-HCl pH 8.0, 5 mM EDTA (or 1 mM MgCl2), 1 mM DTT, 5% glycerol, 100 ug/ml BSA, on ice 15 min, 4% PAGE; anisotropy: 100 mM Tris-HCl pH 7.0, 10 nM; conditions: protein: recombinant, tags: N-terminal MBP, chain copies: 2, label: 5'-32P on strand 1, blunt
[13] = label: 3'-fluorescein, single strand
[14] = label: 3'-fluorescein on strand 1, blunt, central 20 nt bubble

B1: MBP-YbcN (E. coli maltose binding protein fused to the N-terminus of DLP12 YbcN) (natural protein, E. coli (cryptic prophage DLP12), UniProt Q47269 1-151, looked up)
chain: MNLSQDGIKLHRGNFTAIGRQIQPYLEEGKCFRMVLKPWREKRSLSQNALSHMWYSEISEYLISRGKTFATPAWVKDALKHTYLGYETKDLVDVVTGDITTIQSLRHTSDLDTGEMYVFLCKVEAWAMNIGCHLTIPQSCEFQLLRDKQEA
notes: YbcN (orf151), Orf-family protein of E. coli cryptic prophage DLP12; the gene was amplified from AB1157 genomic DNA, forward primer at the ATG; predicted monomer of the MBP fusion 60.4 kDa; Construct in pMALc2; also called DLP12 MBP-YbcN; orf151; source: E. coli DH5α or BL21 (DE3) Rosetta carrying pLB101, purified (amylose; additional stocks amylose and heparin agarose)
For B1, the “stoichiometry N” value [1] was 2 and the binding result [2] was “binds”.

B2: MBP-Orf K48A (natural protein, bacteriophage λ)
chain: MKKLTFEIRSPAHQQNAIHAVQQILPDPTKPIVVTIQERNRSLDQNRALWACLGDVSRQVEWHGRWLDAESWKCVFTAALKQQDVVPNLAGNGFVVIGQSTSRMRVGEFAELLELIQAFGTERGVKWSDEARLALEWKARWGDRAA
notes: Orf (NinB) of bacteriophage λ with K48A; Mutant derivative in pMALc2; One paragraph calls residue 48 Arg48, others Lys48; source: E. coli BL21-AI carrying the pMALc2 construct, purified (amylose) as described [13]
In the case of B2, the “stoichiometry N” value [3] is reported as 2 and the binding result [2] is reported as “binds”.

B3: MBP-Orf W50A (natural protein, bacteriophage λ)
chain: MKKLTFEIRSPAHQQNAIHAVQQILPDPTKPIVVTIQERNRSLDQNRKLAACLGDVSRQVEWHGRWLDAESWKCVFTAALKQQDVVPNLAGNGFVVIGQSTSRMRVGEFAELLELIQAFGTERGVKWSDEARLALEWKARWGDRAA
notes: Orf (NinB) of bacteriophage λ with W50A; Mutant derivative in pMALc2; source: E. coli BL21-AI carrying the pMALc2 construct, purified (amylose, heparin-agarose)
In the case of B3, the “stoichiometry N” value [3] is reported as 2 and the binding result [2] is reported as “binds”.

B4: MBP-Orf V106E (natural protein, bacteriophage λ)
chain: MKKLTFEIRSPAHQQNAIHAVQQILPDPTKPIVVTIQERNRSLDQNRKLWACLGDVSRQVEWHGRWLDAESWKCVFTAALKQQDVVPNLAGNGFVVIGQSTSRMREGEFAELLELIQAFGTERGVKWSDEARLALEWKARWGDRAA
notes: Orf (NinB) of bacteriophage λ with V106E; Mutant derivative in pMALc2; Tends to form multimers or aggregates; source: E. coli BL21-AI carrying the pMALc2 construct, purified (amylose, heparin-agarose)
For B4, the “stoichiometry N” value [3] was 2 and 4 and the binding result [2] was “binds”.

B5: MBP-Orf W137A (natural protein, bacteriophage λ)
chain: MKKLTFEIRSPAHQQNAIHAVQQILPDPTKPIVVTIQERNRSLDQNRKLWACLGDVSRQVEWHGRWLDAESWKCVFTAALKQQDVVPNLAGNGFVVIGQSTSRMRVGEFAELLELIQAFGTERGVKWSDEARLALEAKARWGDRAA
notes: Orf (NinB) of bacteriophage λ with W137A; Mutant derivative in pMALc2; source: E. coli BL21-AI carrying the pMALc2 construct, purified (amylose) as described [13]
For B5, the “stoichiometry N” value [3] was 2 and the binding result [2] was “binds”.

B6: MBP-Orf Q45A (natural protein, bacteriophage λ)
chain: MKKLTFEIRSPAHQQNAIHAVQQILPDPTKPIVVTIQERNRSLDANRKLWACLGDVSRQVEWHGRWLDAESWKCVFTAALKQQDVVPNLAGNGFVVIGQSTSRMRVGEFAELLELIQAFGTERGVKWSDEARLALEWKARWGDRAA
notes: Orf (NinB) of bacteriophage λ with Q45A; Mutant derivative in pMALc2; source: E. coli BL21-AI carrying the pMALc2 construct, purified (amylose, heparin-agarose)
B6 was tested, and the “stoichiometry N” value [3] was 2 and the binding result [2] was “binds”.

B7: MBP-Orf R103E (natural protein, bacteriophage λ)
chain: MKKLTFEIRSPAHQQNAIHAVQQILPDPTKPIVVTIQERNRSLDQNRKLWACLGDVSRQVEWHGRWLDAESWKCVFTAALKQQDVVPNLAGNGFVVIGQSTSEMRVGEFAELLELIQAFGTERGVKWSDEARLALEWKARWGDRAA
notes: Orf (NinB) of bacteriophage λ with R103E; Mutant derivative in pMALc2; source: E. coli BL21-AI carrying the pMALc2 construct, purified (amylose, heparin-agarose)
With B7 the “stoichiometry N” value [3] was 2 and the binding result [2] was “binds”.

B8: SS60-fluorescein (ssDNA)
DNA: TTTGGTCTAACTTTACCGCTACTAAATGCCGCGGATTGGTTTCGCTGAATCAGGTTATTA
Binder B8 has a Kd [4, 13] of 4600 ± 275 nM, a Kd [5, 13] of 272 ± 20.4 nM and a Kd [6, 13] of 522 ± 12.4 nM. It also gave a Kd [7, 13] of 622 ± 0.7 nM, a Kd [8, 13] of 628 ± 99.9 nM and a Kd [9, 13] of 3540 ± 288 nM. For the same binder, the Kd [10, 13] was 223 ± 72.6 nM and the binding result [11, 13] was “no binding”.

B9: BB5 (structured_DNA)
DNA 1: TTTGGTCTAACTTTACCGCTACTAAATGCCGCGGATTGGTTTCGCTGAATCAGGTTATTA
DNA 2: TAATAACCTGATTCAGCGAAACCAATCGCAACCATTTAGTAGCGGTAAAGTTAGACCAAA
B9: binds ([12]; central 5 nt bubble).

B10: BB13 (structured_DNA)
DNA 1: TTTGGTCTAACTTTACCGCTACTAAATGCCGCGGATTGGTTTCGCTGAATCAGGTTATTA
DNA 2: TAATAACCTGATTCAGCGAAACATTGTAGGTAAGCTTAGTAGCGGTAAAGTTAGACCAAA
B10: binds ([12]; central 13 nt bubble).

B11: BB20-fluorescein (structured_DNA)
DNA 1: TTTGGTCTAACTTTACCGCTACTAAATGCCGCGGATTGGTTTCGCTGAATCAGGTTATTA
DNA 2: TAATAACCTGATTCAGCGAATGACCGATAACGTCCACTTGAGCGGTAAAGTTAGACCAAA
In the case of B11, the Kd [4, 14] is reported as 1619 ± 3.2 nM, the Kd [5, 14] is reported as 264 ± 15.2 nM and the Kd [6, 14] is reported as 540 ± 73.2 nM. It also gave a Kd [7, 14] of 551 ± 6.4 nM, a Kd [8, 14] of 285 ± 1.9 nM and a Kd [9, 14] of 1610 ± 418 nM. For the same binder, the Kd [10, 14] was 173 ± 20.9 nM and the binding result [11, 14] was “no binding”.
